The results in this text go back to publication PMC2796841 (Integrative biology : quantitative biosciences from nano to …, 2009).

The data set concerns tumor. As to conditions: mouse, in vivo.

Regarding PAMAM-e9-xPLGLAG-r9-k(Cy5), the “time of maximal contrast after injection” value came out at 48 h.
